In the assay the target is T1, MBP-human TRIM25-Flag (human, UniProt Q14258 1-630).
T1 construct: human TRIM25
As to the kind of experiment: pull-down. The note with it: both partners purified.

T1 sequence (Q14258 whole entry): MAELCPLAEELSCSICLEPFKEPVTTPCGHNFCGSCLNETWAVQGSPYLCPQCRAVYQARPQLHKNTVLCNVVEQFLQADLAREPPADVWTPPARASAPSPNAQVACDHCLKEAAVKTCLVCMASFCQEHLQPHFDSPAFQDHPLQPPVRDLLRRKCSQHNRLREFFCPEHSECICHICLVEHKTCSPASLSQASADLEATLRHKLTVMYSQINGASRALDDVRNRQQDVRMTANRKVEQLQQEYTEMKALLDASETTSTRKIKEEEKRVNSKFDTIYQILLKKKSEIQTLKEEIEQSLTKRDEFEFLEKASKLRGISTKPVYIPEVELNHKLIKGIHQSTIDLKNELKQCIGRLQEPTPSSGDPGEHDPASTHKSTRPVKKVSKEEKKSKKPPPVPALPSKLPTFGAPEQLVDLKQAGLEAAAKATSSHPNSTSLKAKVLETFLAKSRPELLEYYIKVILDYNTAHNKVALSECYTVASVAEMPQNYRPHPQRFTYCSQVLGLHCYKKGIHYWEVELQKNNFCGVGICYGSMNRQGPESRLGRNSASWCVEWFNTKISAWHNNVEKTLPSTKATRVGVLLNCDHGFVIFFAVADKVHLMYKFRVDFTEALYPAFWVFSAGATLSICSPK

B1: Glutathione-S-transferase (GST)-NS1 fusion protein (PR8) (natural protein)
chain: MDPNTVSSFQVDCFLWHVRKRVADQELGDAPFLDRLRRDQKSLRGRGSTLGLDIETATRAGKQIVERILKEESDEALKMTMASVPASRYLTDMTLEEMSRDWSMLIPKQKVAGPLCIRMDQAIMDKNIILKANFSVIFDRLETLILLRAFTEEGAIVGEISPLPSLPGHTAEDVKNAVGVLIGGLEWNDNTVRVSETLQRFAWRSSNENGRPPLTPKQKREMAGTIRSEV
notes: source: bacteria, purified
Consider B1, for which the binding result is given as “binds”.
